From IntAct's records for PubMed 16247757

B1: Lamina-associated polypeptide 2, isoform alpha (Homo sapiens), P42166 (parent)
chain: MPEFLEDPSVLTKDKLKSELVANNVTLPAGEQRKDVYVQLYLQHLTARNRPPLPAGTNSKGPPDFSSDEEREPTPVLGSGAAAAGRSRAAVGRKATKKTDKPRQEDKDDLDVTELTNEDLLDQLVKYGVNPGPIVGTTRKLYEKKLLKLREQGTESRSSTPLPTISSSAENTRQNGSNDSDRYSDNEEGKKKEHKKVKSTRDIVPFSELGTTPSGGGFFQGISFPEISTRPPLGSTELQAAKKVHTSKGDLPREPLVATNLPGRGQLQKLASERNLFISCKSSHDRCLEKSSSSSSQPEHSAMLVSTAASPSLIKETTTGYYKDIVENICGREKSGIQPLCPERSHISDQSPLSSKRKALEESESSQLISPPLAQAIRDYVNSLLVQGGVGSLPGTSNSMPPLDVENIQKRIDQSKFQETEFLSPPRKVPRLSEKSVEERDSGSFVAFQNIPGSELMSSFAKTVVSHSLTTLGLEVAKQSQHDKIDASELSFPFHESILKVIEEEWQQVDRQLPSLACKYPVSSREATQILSVPKVDDEILGFISEATPLGGIQAASTESCNQQLDLALCRAYEAAASALQIATHTAFVAKAMQADISQAAQILSSDPSRTHQALGILSKTYDAASYICEAAFDEVKMAAHTMGNATVGRRYLWLKDCKINLASKNKLASTPFKGGTLFGGEVCKVIKKRGNKH

Variants of: B1
Details: with lmna_human LMNA
R690C was tested, and the “effect of a mutation on the interaction” value was “decreasing interaction”.
